What all share (assay): iTopia iScore
For test [1], the target named is T1, MHC class I molecule A*0201 (biotin (bound to streptavidin-coated plate)).
T1 construct: also called A2; HLA-A2
On the procedure: (§1) The 9 mers were tested for Peptide Binding, Off Rate and Affinity using iTopia Epitope Discovery System in accordance with the manufacturer's instructions. Briefly, 96 well microtitre plates coated with MHC molecules representing different MHC alleles are used to identify candidate peptides. […] Determinations are performed in duplicate using an ELISA plate reader and included allele specific positive controls.
(§2) Finally, multiparametric analysis is performed on the results from these assays and an iScore is generated. The iScore represents a measure of the overall quality of peptide-MHC binding, enabling candidate peptides to be ranked in order of binding quality and allowing rational prioritisation of peptides for functional cellular follow-up studies.

Test [2] addresses T2, MHC class I molecule A*0101 (biotin (bound to streptavidin-coated plate)).
T2 construct: also called A1; HLA-A1
On the procedure:
as §1, §2

Test [3] addresses T3, MHC class I molecule B*0702 (biotin (bound to streptavidin-coated plate)).
T3 construct: also called B7; HLA-B7
The method, then:
as §1, §2

Test [4] deals with T4, MHC class I molecule A*0301 (biotin (bound to streptavidin-coated plate)).
T4 construct: also called A3; HLA-A3
On the procedure:
as §1, §2

B1: 5T4 9-mer peptide 7 DGRLRLARL (peptide)
peptide: DGRLRLARL
On to B1, for which the iScore in test [1] was 0; in test [2] it was 0; in test [3] it was 0.038; in test [4], 0.

B2: 5T4 9-mer peptide 8 RLRLARLAL (peptide)
peptide: RLRLARLAL
Regarding B2, the iScore in test [1] is 0.216; in test [2], 0; in test [3], 1; in test [4], 0.027.

B3: 5T4 9-mer peptide 15 VSSSSPTSS (peptide)
peptide: VSSSSPTSS
With B3, the iScore in test [1], in test [2], in test [3] and in test [4] was 0 throughout.

B4: 5T4 9-mer peptide 12 LVLLGWVSS (peptide)
peptide: LVLLGWVSS
For B4, the iScore in test [1] came to 0.122; in test [2] it was 0; in test [3], 0; in test [4], 0.

B5: 5T4 9-mer peptide 11 LALVLLGWV (peptide)
peptide: LALVLLGWV
B5: the iScore in test [1] was 0.237; in test [2] it was 0; in test [3] it was 0; in test [4], 0.

B6: 5T4 9-mer peptide 3 CSRGPAAGD (peptide)
peptide: CSRGPAAGD
With B6, the iScore in test [1], in test [2], in test [3] and in test [4] was 0 each time.

B7: 5T4 9-mer peptide 14 GWVSSSSPT (peptide)
peptide: GWVSSSSPT
Consider B7, for which the iScore in test [1] worked out at 0.044; in test [2], 0; in test [3], 0; in test [4], 0.

B8: 5T4 9-mer peptide 4 RGPAAGDGR (peptide)
peptide: RGPAAGDGR
On to B8, for which the iScore was 0.032 in test [1], 0 in test [2], 0 in test [3] and 0 in test [4].

B9: 5T4 9-mer peptide 16 SSSPTSSAS (peptide)
peptide: SSSPTSSAS
For B9, the iScore in test [1], in test [2], in test [3] and in test [4] was 0 throughout.

B10: 5T4 9-mer peptide 1 MPGGCSRGP (peptide)
peptide: MPGGCSRGP
As for B10, the iScore in test [1], in test [2], in test [3] and in test [4] was 0 throughout.

B11: 5T4 9-mer peptide 5 PAAGDGRLR (peptide)
peptide: PAAGDGRLR
For B11, the iScore in test [1], in test [2], in test [3] and in test [4] was 0 throughout.

B12: 5T4 9-mer peptide 10 ARLALVLLG (peptide)
peptide: ARLALVLLG
In the case of B12, the iScore came out at 0.143 in test [1], 0 in test [2], 0 in test [3] and 0 in test [4].

B13: 5T4 9-mer peptide 6 AGDGRLRLA (peptide)
peptide: AGDGRLRLA
As to B13, the iScore in test [1] was 0.023; in test [2], 0; in test [3] it was 0; in test [4], 0.

B14: 5T4 9-mer peptide 13 LLGWVSSSS (peptide)
peptide: LLGWVSSSS
With B14, the iScore in test [1] turned out to be 0.243; in test [2], 0; in test [3] it was 0; in test [4], 0.

B15: 5T4 9-mer peptide 2 GGCSRGPAA (peptide)
peptide: GGCSRGPAA
B15: the iScore was 0.016 in test [1], 0 in test [2], 0.012 in test [3] and 0 in test [4].

(Values after patent publication US20090280138A1 (OXFORD BIOMEDICA UK, published 2009).)
